Results from patent US9371374.

Key:
Experiment in all cases: EIA, captured mAb
[1] = target: biotinylated HCV core peptide 134-154 (Peptide 1) (HCV-1)
[2] = target: biotinylated HCV core peptide 141-161 (Peptide 2) (HCV-1)
[3] = target: biotinylated HCV core peptide 151-171 (Peptide 3) (HCV-1)

Row | Binder | Reactivity (OD492) [1] [OD] | Reactivity (OD492) [2] [OD] | Reactivity (OD492) [3] [OD]
1 | HCV 208B-178 (antibody, V domains shown) VH: DVKLVESGGGLVKLGGSLKLSCAASGFTFSSYYMSWVRQTPEKRLELVAAINSNGGSTYYPDTVKGRFTISRDNAKNTLYLQMSSLKSEDTALYYCARHGGLGRRDWYFDVWGAGTTVTVSS VL: DIVLTQSPASLAVSLGQRATISCRASESVDNYGISFMHWYQQKPGQPPKLLIYRASNLESGIPARFSGSGSRTDFTLTINPVETDDVATYYCQQSNKDPFTFGSGAKLEIKR | 0.1 | 0.07 | 1.69
2 | HCV 208B-251 (antibody, V domains shown) VH: QLQQSGPVLVKPGASVKISCKTSGYTFTENAMHWVKQSHGKSLEWIGGVNPNNGDTIYNQKFKGKATLTVDKSSSTAFMELRSLTSEESPVYFCVRRELDFFDYWGQGTSVTVSS VL: DIVLTQSPASLAVSLGKKATISCRASQSVSTSRYSYMHWYQQKPGHPPKLLIKYASNLESGVPARFSGSGSGTDFTLNIHPVAEEDTAAYYCQHSWEFPFTFGSGTKLEIKR | 0.11 | 2.35 | 0.41
3 | HCV 208B-327 (antibody, V domains shown) VH: EVQLVESGGGLVKPGGSLKLSCAASGFTFSDSYMYWVRQTPDQRLEWVATISDGGSYTFYPDSVKGRFTISRDNAQNNLYLQMSSLKSEDTAMYYCASPHAGYFGWFAYWGRGTLVTVSA VL: DIVMTQAAFSNPVTPGTSVSISCRSSKSLLHSNGITYLYWYLQKPGQSPQLLIYQMSKIASGVPDRFRSSGSGTDFTLRISRVEAADVGVYYCAQNLELPWTFGGGTKLEIKR | 0.07 | 0.05 | 0.49
4 | HCV 208B-281 (antibody, V domains shown) VH: QGQLQQSGAELVKPGASVKLSCKTSGFTFSSSYISWLKQRPGQSLEWIAWIYAGTGGTNYNQKFTDKAQLTVDTSSSTAYMQFSSLTTEDSAIYYCAISGTGFIYWGQGTLVTVSA VL: DVLMTQTPLSLPVSLGDQASISCRSSQSLVHNNGNTYLEWFLQKPGQSPKLLIYKVSNRFSGVPDRFSGSGSGTDFTLKISRVEAEDLGVYYCFQGSHVPFTFGSGTKLEIKR | 1.48 | 0.16 | 0.12
5 | HCV 208B-1096 (antibody, V domains shown) VH: QVQLQQSGAGLAKPGASVKMSCKASGYTFTANKMHWAKQRPGQGLEWIGYIDPSSGYTEYNHKIQYKATLTADTSSSTAYMQLSTLTFEDSAVYYCTNFAYWGQGTLVTVSA VL: DIVMTQTPLTLSVTIGQPASISCKSSQSLLFTNGKTYLNWFLQRPGQSPKRLIYLLSKLDSGVPDRFSGSGSGTDFTLKISRVEAEDLGVYYCLQSTYFPLTFGAGTKLELKR | 0.34 | 0.13 | 3.56
6 | HCV 208B-395 (antibody, V domains shown) VH: QVQLQQSGAGLAKPGASVKMSCKASGYTFTANKMHWTKQRPGQGLEWIGYIDPSSGYTQYNHKIQDKATLTADTSSSTAYMQLSSLTFEDSAVYYCTNFAYWGQGTLVTVSA VL: DIVLTQSPATLSVTPGDRVSLSCRASQRIYNYLHWYQQKSHESPRLLIKYASQSISGIPSRFSGSGSGTDFILTINSVETEDFGMYFCQQSNSWPLTFGAGTKLELRR | 0.54 | 0.13 | 3.69
7 | HCV 208B-189 (antibody, V domains shown) VH: QVHLQQSGAELAKPGASVQMSCKASGYTFTANKMHWARQRPRQGLEWIGYIDPASGYTEYNQKIKDRATLTADKSSSTAYMQLSSLTSEDSAVYYCTNFAYWGQGTLVTVST VL: not shown | 0.55 | 0.15 | 3.95
8 | HCV 208B-1094 (antibody, V domains shown) VH: EVQLQQSGPELVKPGASVKISCKTSGYTFTEYAMHWMKQSHGKSLEWIGGINPTNGDTIYNQRFKDKAKLTVDRSSSTAYMELRSLTSDDSALFYCARRELDYFASWGQGTTLTVSS VL: DIVLTQSPASLIVSLGQTATISCRASQSLSTSRFSYVHWIQQKPGQPPKLLIKYASNLESGVPVRFSGSGSGTDFTLNIHPVEEEDTATYFCQHSWEFPFTFGSGTKLKIKR | 0.12 | 3.28 | 0.13
